{"source": "patent US20050089938A1", "about": "“Use of peptide fragments of the calcium channel a-1 subunit, optionally comprising mutations, for screening molecules of therapeutic interest” (priority 2001, published 2005)", "molecules": {"B1": {"name": "I-II loop of the Cav2.1 sub-unit: I-II loop of the Cav2.1 calcium channel sub-unit; in cells coupled to CD8 transmembrane segment and GFP (protein, listed as Oryctolagus cuniculus)", "chain": "SGEFAKERERVENRRAFLKLRRQQQIERELNGYMEWISKAEEVILAEDETDVEQRHPFDGALRRATIKKSKTDLLHPEEAEDQLADIASVGSPFARASIKSAKLENSSFFHKKERRMRFYIRRMVKTQ"}}, "key": {"Cav2.1 channel": {"target": "T1, Cav2.1 channel (Oryctolagus cuniculus, UniProt P27884)", "T1 construct": "expressed in transfected cells; host or cells: Xenopus laevis oocytes (cRNA injection)", "T1 sequence (P27884 whole entry)": "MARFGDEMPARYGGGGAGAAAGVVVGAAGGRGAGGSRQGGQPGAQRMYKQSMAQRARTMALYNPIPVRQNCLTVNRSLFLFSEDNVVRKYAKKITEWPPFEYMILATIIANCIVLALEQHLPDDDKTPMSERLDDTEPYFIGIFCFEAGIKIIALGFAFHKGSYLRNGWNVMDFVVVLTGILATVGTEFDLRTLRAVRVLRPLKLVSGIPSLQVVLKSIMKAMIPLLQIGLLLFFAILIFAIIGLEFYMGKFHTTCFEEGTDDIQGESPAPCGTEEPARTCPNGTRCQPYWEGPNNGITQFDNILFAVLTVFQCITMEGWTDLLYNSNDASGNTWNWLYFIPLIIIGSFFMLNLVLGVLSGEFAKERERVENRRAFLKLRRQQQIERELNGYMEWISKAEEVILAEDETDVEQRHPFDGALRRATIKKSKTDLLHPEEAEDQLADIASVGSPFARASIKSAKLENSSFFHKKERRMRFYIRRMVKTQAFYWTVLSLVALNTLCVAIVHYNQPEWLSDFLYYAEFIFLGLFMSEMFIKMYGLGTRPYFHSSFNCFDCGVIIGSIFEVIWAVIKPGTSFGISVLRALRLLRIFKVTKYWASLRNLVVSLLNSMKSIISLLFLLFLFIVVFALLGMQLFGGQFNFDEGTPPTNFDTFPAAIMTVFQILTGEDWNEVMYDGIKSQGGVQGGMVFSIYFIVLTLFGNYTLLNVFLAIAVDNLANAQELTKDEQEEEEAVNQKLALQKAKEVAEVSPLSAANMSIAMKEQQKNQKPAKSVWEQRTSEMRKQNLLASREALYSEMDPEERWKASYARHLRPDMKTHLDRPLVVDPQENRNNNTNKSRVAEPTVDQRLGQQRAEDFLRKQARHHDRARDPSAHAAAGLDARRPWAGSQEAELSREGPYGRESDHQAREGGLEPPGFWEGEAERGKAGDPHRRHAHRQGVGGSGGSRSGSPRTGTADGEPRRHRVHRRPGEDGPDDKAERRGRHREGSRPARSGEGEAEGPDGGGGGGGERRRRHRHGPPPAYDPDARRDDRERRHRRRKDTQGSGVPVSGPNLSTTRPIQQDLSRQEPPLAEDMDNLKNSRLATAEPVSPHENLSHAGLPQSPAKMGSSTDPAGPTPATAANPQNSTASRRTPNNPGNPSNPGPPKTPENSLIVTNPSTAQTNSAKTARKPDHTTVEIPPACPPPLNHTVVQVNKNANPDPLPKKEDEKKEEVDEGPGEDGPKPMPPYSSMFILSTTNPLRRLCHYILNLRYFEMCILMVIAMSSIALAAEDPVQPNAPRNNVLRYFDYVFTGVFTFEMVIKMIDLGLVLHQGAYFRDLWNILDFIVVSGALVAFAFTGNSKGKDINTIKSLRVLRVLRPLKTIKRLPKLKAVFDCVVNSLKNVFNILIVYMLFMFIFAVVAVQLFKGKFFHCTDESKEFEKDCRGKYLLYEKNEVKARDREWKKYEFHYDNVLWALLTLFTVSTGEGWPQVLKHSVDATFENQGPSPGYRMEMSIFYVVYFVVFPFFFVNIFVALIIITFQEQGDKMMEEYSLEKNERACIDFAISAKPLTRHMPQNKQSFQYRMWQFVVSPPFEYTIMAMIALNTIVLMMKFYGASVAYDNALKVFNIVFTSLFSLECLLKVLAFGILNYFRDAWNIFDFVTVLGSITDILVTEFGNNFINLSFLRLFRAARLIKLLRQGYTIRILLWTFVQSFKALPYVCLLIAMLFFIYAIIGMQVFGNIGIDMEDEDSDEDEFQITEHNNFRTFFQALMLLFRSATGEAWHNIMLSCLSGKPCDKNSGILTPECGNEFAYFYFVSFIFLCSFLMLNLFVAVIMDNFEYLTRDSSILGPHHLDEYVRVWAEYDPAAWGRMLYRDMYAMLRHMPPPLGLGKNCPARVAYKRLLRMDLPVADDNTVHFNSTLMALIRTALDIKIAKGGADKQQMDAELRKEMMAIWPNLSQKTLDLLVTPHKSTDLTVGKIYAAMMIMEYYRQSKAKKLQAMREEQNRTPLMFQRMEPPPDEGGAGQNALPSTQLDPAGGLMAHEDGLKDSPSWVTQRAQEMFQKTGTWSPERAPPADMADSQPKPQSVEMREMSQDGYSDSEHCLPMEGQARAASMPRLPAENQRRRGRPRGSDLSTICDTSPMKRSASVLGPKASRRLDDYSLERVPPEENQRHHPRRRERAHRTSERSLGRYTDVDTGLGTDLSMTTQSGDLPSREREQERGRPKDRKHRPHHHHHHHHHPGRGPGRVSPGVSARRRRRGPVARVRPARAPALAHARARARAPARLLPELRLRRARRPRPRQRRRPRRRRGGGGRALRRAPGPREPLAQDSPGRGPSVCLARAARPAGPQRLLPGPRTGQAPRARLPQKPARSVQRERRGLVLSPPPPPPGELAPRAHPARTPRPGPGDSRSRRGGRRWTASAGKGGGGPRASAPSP", "assay": "Inactivation kinetics of the Cav2.1 channel expressed in Xenopus oocytes, two-electrode voltage-clamp Ba2+ currents", "assay_type": "cell-based, rabbit", "method": "Xenopus oocytes are removed at Stages V and VI from ovaries of Xenopus laevis frogs from South Africa and maintained in standard saline solution (Barth's medium). The cells are treated with collagenase type IA (2 mg/ml) for two hours and the follicular membranes are eliminated manually. The oocytes are maintained in DNOM medium (defined nutrient oocyte medium) for 2 days before injection of cRNA coding for the Cav2.1 channel. The injection of this cRNA coding for the wild-type or mutated channel is carried out at a concentration of 0.3 μg/μl. In the case of coinjection of other cRNAs (for example: CD8-III-IV, III-IV, etc.), these cRNAs are injected at a concentration of 0.1 μg/μl. The injections of III-IV peptide are carried out at a final intracellular concentration of 10 μM. […] Following the cRNA injections, the cells are kept at 16° C. in DNOM medium for a minimum of 4-5 days before continuing with the electrophysiological recordings.\nWe applied the two-electrode voltage-clamp technique for the recordings of Ba^2+ currents (the Ba^2+ is more permeable than the Ca^2+ through the high-threshold calcium channels and facilitates our analyses). The recordings are carried out with a GeneClamp amplifier from Axon Instruments (Foster City, Calif.). […] The data are analyzed with the pCLAMP software suite version 6.03 (Axon Instruments). […]"}, "III-IV loop of Cav2.1": {"target": "T2, III-IV loop of Cav2.1 (Oryctolagus cuniculus, UniProt P27884)", "T2 construct": "This III-IV loop has been expressed and purified as a GST (Glutathione-S-Tranferase) fusion protein; made in house", "T2 sequence (P27884 1521-1575)": "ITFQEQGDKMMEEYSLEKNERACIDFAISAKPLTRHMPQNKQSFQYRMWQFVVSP", "assay": "Binding of 35S-methionine labelled in vitro translated I-II loop to GST-III-IV fusion protein", "design": "species or system rabbit", "settings": "35S-methionine labelled I-II loop, absence of β sub-unit", "from_the_text": "FIG. 2: Binding of the I-II loop of Cav2.1 to different intracellular loops. […] This III-IV loop has been expressed and purified as a GST (Glutathione-S-Tranferase) fusion protein. The I-II protein of the channel has been translated in vitro and labelled by a radioactive amino acid (^35S-methionine) in order to monitor its binding to the GST-III-IV fusion protein.\nThese two amino acids are therefore indispensable to the binding of the I-II loop to the III-IV loop in the absence of the β sub-unit of the calcium channel."}, "[1]": {"test_system": "high threshold calcium channels", "assay": "High-threshold calcium current after expression of the I-II loop in bovine chromaffin cells", "assay_type": "cell-based", "settings": "bovine chromaffin cells transfected with I-II loop coupled to CD8 transmembrane segment and GFP", "from_the_text": "(§1) The expression of the I-II loop of the Cav2.1 channel is induced following a cell transfection method (thanks to a transfection agent: lipofectamine, fugene etc.). In order to have the ability to bind the endogenous β sub-units to these cells, we have noted that the ability of this I-II sequence to reduce the expression at the plasma membrane of the endogenous high-threshold calcium channels is facilitated by its coupling to a transmembrane segment. The Inventors have used for their experiments the transmembrane segment of the α chain of the human CD8 receptor, coupled to the amino-terminal part of the I-II loop. In order to facilitate the detection of the transfected cells, the carboxy-terminal part of the I-II loop was coupled to GFP protein (Green Fluorescent Protein) which has the property of green fluorescence (easily detectable in fluorescence microscopy). FIG. 1A illustrates the construction used for these experiments. FIG. 1B illustrates the amino-acid sequence of the transmembrane sequence of the α chain of the CD8 receptor."}, "[2]": {"test_system": "high threshold calcium channels", "assay": "High-threshold calcium current after expression of the I-II loop in rat cerebellum granular cells", "assay_type": "cell-based", "settings": "rat cerebellum granular cells transfected with I-II loop coupled to CD8 transmembrane segment and GFP", "from_the_text": "as §1"}}, "data": [{"molecule": "peptide representing the 40 carboxy-terminal amino acids of the III-IV loop: peptide representing the 40 carboxy-terminal amino acids of the III-IV loop of Cav2.1 (LEKNERACIDFAISAKPLTRHMPQNKQSFQYRMWQFVVSP)", "values": [{"measurement": "effect on inactivation kinetics of the Cav2.1 channel", "setting": "Cav2.1 channel; peptide free in the cytoplasm, injected, final intracellular concentration 10 μM", "value": "acceleration is similar"}]}, {"molecule": "III-IV loop: III-IV loop of Cav2.1 expressed coupled in amino-terminal position with the α chain of the human CD8 receptor", "values": [{"measurement": "effect on inactivation kinetics of the Cav2.1 channel", "setting": "Cav2.1 channel; III-IV loop associated with the plasma membrane via amino-terminal coupling to α chain of human CD8 receptor, cRNA coinjection", "value": "accelerates the inactivation kinetics"}]}, {"molecule": "B1", "values": [{"measurement": "binding to the GST-III-IV fusion protein", "setting": "III-IV loop of Cav2.1", "value": "binding of I-II is evident"}, {"measurement": "reduction of the high-threshold calcium current", "setting": "[1]", "value": "more than 50%"}, {"measurement": "reduction of the high-threshold calcium current", "setting": "[2]", "value": "more than 50%"}]}]}
